Laboratory results taken from PMC7261152 (Nucleic Acids Research, 2020).

Target: T1, human BCMA-Fc fusion protein (human, UniProt Q02223 1-54)
T1 sequence (looked up): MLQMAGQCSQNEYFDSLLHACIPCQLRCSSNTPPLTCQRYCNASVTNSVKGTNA
Test: ELISA

B1: anti-BCMA DVD-IgG1 (2) (bispecific antibody)
light: DIQMTQSPSSLSASVGDRVTITCSASQDISNYLNWYQQKPGKAPKLLIYYTSNLHSGVPSRFSGSGSGTDFTLTISSLQPEDFATYYCQQYRKLPWTFGQGTKLEIKASTKGPELQMTQSPSSLSASVGDRVTITCRSSQSLLHTYGSPYLNWYLQKPGQSPKLLIYKVSNRFSGVPSRFSGSGSGTDFTLTISSLQPEDFAVYFCSQGTHLPYTFGGGTKVEIKRTVAAPSVFIFPPSDEQLKSGTASVVCLLNNFYPREAKVQWKVDNALQSGNSQESVTEQDSKDSTYSLSSTLTLSKADYEKHKVYACEVTHQGLSSPVTKSFNRGEC
heavy: not shown
Question: Does B1 bind?
Answer: binds
